Test results from PMC9609006.

Columns and labels:
[1] = substrate: OC[C@H]1O[C@H](F)[C@H](O)[C@@H](O)[C@@H]1O; experiment: purified protein; details: thioglycosynthase reaction; glycosyl donor; thiol acceptor p-nitrothiophenol
[2] = substrate: O=[N+]([O-])c1ccc(S)cc1; experiment: purified protein; details: thioglycosynthase reaction; thiol acceptor; donor α-D-glucopyranosyl fluoride

Row | Protein | Km [1] [mM] | Km [2] [mM]
1 | HorGH1 (Halothermothrix orenii H 168; E166A/E354G/M299R) (protein) MAKIIFPEDFIWGAATSSYQIEGAFNEDGKGESIWDRFSHTPGKIENGDTGDIACDHYHLYREDIELMKEIGIRSYRFSTSWPRILPEGKGRVNQKGLDFYKRLVDNLLKANIRPMITLYHWDLPQALQDKGGWTNRDTAKYFAEYARLMFEEFNGLVDLWVTHNAPWVVAFEGHAFGNHAPGTKDFKTALQVAHHLLLSHGMAVDIFREEDLPGEIGITLNLTPAYPAGDSEKDVKAASLLDDYINAWFLSPVFKGSYPEELHHIYEQNLGAFTTQPGDMDIISRDIDFLGINYYSRRVVRHKPGDNLFNAEVVKMEDRPSTEMGWEIYPQGLYDILVRVNKEYTDKPLYITGNGAAFDDKLTEEGKIHDEKRINYLGDHFKQAYKALKDGVPLRGYYVWSLMDNFEWAYGYSKRFGLIYVDYENGNRRFLKDSALWYREVIEKGQVEAN | 2.26 | 3.82
2 | HorGH1 (Halothermothrix orenii H 168; E166A/E354G) (protein) MAKIIFPEDFIWGAATSSYQIEGAFNEDGKGESIWDRFSHTPGKIENGDTGDIACDHYHLYREDIELMKEIGIRSYRFSTSWPRILPEGKGRVNQKGLDFYKRLVDNLLKANIRPMITLYHWDLPQALQDKGGWTNRDTAKYFAEYARLMFEEFNGLVDLWVTHNAPWVVAFEGHAFGNHAPGTKDFKTALQVAHHLLLSHGMAVDIFREEDLPGEIGITLNLTPAYPAGDSEKDVKAASLLDDYINAWFLSPVFKGSYPEELHHIYEQNLGAFTTQPGDMDIISRDIDFLGINYYSRMVVRHKPGDNLFNAEVVKMEDRPSTEMGWEIYPQGLYDILVRVNKEYTDKPLYITGNGAAFDDKLTEEGKIHDEKRINYLGDHFKQAYKALKDGVPLRGYYVWSLMDNFEWAYGYSKRFGLIYVDYENGNRRFLKDSALWYREVIEKGQVEAN | 2.12 | 7.46
